Reference: patent publication US20240343803A1 (SHANDONG SIMCERE BIOPHARMACEUTICAL, published 2024)

What was measured:
[1] = target: T1, Fusion protein of extracellular domain of human TIGIT and His-tag (human TIGIT ECD-his) (human); assay: BIAcore
T1 chain: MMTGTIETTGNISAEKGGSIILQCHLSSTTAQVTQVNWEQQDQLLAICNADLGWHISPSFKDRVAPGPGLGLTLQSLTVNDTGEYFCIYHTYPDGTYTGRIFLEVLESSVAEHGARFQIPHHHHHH

[2] = target: T2, Fusion protein of extracellular domain of human TIGIT and mouse IgG2a Fc fragment (human TIGIT ECD-mFc) (human); assay: ELISA, human TIGIT ECD-mFc
T2 construct: The entry includes the signal peptide (limits not recoverable) and the mouse IgG2a Fc
T2 chain: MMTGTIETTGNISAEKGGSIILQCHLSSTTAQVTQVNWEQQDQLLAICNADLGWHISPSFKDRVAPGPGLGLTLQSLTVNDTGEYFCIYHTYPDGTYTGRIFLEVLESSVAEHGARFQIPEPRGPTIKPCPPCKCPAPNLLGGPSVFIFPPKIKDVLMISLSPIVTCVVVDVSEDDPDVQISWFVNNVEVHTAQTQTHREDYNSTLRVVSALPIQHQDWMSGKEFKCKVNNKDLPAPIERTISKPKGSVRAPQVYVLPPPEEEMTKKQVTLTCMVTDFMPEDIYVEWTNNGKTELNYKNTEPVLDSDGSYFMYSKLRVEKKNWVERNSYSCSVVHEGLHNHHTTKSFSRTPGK
Experimental: (§1) After discarding the coating solution, the plate was added with 5% skim milk powder (Sangon Biotech, CAT #A600669-0250)-PBS, 250 μL/well, and incubated at 37° C. for 2-4 hours. […] The enzyme-labeled plate was then washed with 0.05% Tween 20-PBS for 3 times on the Microplate Washer, added with tested antibodies diluted to 13 nM with 1% BSA (diluted by 3-fold serial dilution for 12 concentration points), 50 μL/well, and incubated at 37° C. for 1.5-2 hours. The plate was washed with 0.05% Tween 20-PBS for 3 times on the Microplate Washer, then added with HRP enzyme-labeled antibodies (Merck, CAT #AP113P) diluted with 1% BSA (Sangon Biotech, CAT #A500023-0100)-PBS at a dilution ratio of 1:5000, 50 μL/well, and incubated at 37° C. for 1 hour. After washing 3 times with 0.05% Tween 20-PBS on the Microplate Washer, the plate was added with TMB chromogenic solution (KPL, CAT #52-00-03), 50 μL/well, and incubated at room temperature for 7-10 minutes. 1M HCL, 50 μL/well, was then added into the plate to terminate the reaction, and the OD450 nm was read by a microplate reader (Biotek, Powerwave HT). […] (b) The binding activity of anti-TIGIT chimeric antibodies to CHO-K1 human TIGIT (cells with high, medium and low expression levels) and CHO-KI cynomolgus monkey TIGIT detected by FACS.
(§2) The affinity of the above humanized antibodies with human TIGIT ECD-His is detected by BIAcore, and with reference to the methods of Example 4 (a), (b), and (d), the binding activity of the above humanized antibodies to human TIGIT ECD-mFc, CHO-K1 human TIGIT, CHO-K1 cynomolgus monkey TIGIT and cynomolgus monkey TIGIT ECD-mFc, and the effect of the humanized antibodies blocking the binding between human TIGIT ECD-mFc and CHO-K1 CD155 are detected, the results are shown in Table 18.

[3] = target: T1, Fusion protein of extracellular domain …; assay: BIAcore; KD ratio to TIGIT-CHI-006
[4] = target: T3, Fusion protein of extracellular domain of cynomolgus monkey TIGIT and mouse IgG2a Fc fragment (cynomolgus … (cynomolgus monkey)); assay: ELISA, cynomolgus monkey TIGIT ECD-mFc
T3 construct: The entry includes the signal peptide (limits not recoverable) and the mouse IgG2a Fc
Experimental: as §1, §2

[5] = target: T4, Full-length cynomolgus monkey TIGIT on CHO-K1 cells (CHO-K1 cynomolgus monkey TIGIT) (cynomolgus monkey); assay: cell binding, CHO-K1 cynomolgus monkey TIGIT
T4 construct: NCBI XP_015300911.1
Experimental: (§3) The collected cells were washed once with PBS (Hyclone, CAT #SH30256), resuspended to 2×10⁵/50 μL with 1% BSA-PBS. The antibodies were diluted to 80 nM with 1% BSA-PBS (diluted by 3-fold serial dilution for 12 concentration points). The 50 μL cells were then mixed with 50 μL diluted antibodies, and then incubated at 4° C. for 60 minutes. […] After washing twice with PBS, the cell samples were resuspended with 1% BSA-PBS, 100 μL/well and then analyzed by flow cytometry (BD, Canto II). […] [0298] (c) The effect of anti-TIGIT chimeric antibodies blocking the interaction between Bio-CD155-His and CHO-K1 human TIGIT high expression cell strains detected by FACS
as §2

[6] = target: T5, Fusion protein of extracellular domain of human TIGIT and human IgG1 Fc fragment (human TIGIT ECD-hFc) (human); assay: blocking of TIGIT ECD-hFc binding to CHO-K1 CD155 cells
T5 construct: The entry includes the signal peptide (limits not recoverable) and the human IgG1 Fc
Procedure, shortened: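 Cell-based ELISA on CHO-K1 CD155 cells, cultured overnight, fixed and blocked with 5% skim milk-PBS. Antibodies were premixed for 0.5 h with human TIGIT ECD-hFc (working concentration 30 ng/mL), then added and held at 37° C for 1.5-2 h. Bound TIGIT was detected with HRP secondary antibody (1:5000, 37° C, 1 h) and TMB, read as OD450 nm. IC50 came from the inhibition curves.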

[7] = target: T6, Full-length human TIGIT on CHO-K1 cells (CHO-K1 human TIGIT) (human, UniProt Q495A1 22-244); assay: cell binding, CHO-K1 human TIGIT high expression strain
T6 construct: NCBI XP_024309156.1; the entry includes the signal peptide (limits not recoverable); The strain (high, medium, low) is named under assay; also called high expression strain 1D2; medium expression strain 2D10
T6 sequence: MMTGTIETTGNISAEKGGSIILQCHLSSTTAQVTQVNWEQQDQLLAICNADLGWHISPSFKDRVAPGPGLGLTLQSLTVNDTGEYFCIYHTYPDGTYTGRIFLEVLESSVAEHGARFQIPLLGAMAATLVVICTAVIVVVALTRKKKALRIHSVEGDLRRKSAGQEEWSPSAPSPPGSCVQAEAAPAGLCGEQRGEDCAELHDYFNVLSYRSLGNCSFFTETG
Experimental: as §3, §2

T5 sequence (chain, as listed by the source limits assumed): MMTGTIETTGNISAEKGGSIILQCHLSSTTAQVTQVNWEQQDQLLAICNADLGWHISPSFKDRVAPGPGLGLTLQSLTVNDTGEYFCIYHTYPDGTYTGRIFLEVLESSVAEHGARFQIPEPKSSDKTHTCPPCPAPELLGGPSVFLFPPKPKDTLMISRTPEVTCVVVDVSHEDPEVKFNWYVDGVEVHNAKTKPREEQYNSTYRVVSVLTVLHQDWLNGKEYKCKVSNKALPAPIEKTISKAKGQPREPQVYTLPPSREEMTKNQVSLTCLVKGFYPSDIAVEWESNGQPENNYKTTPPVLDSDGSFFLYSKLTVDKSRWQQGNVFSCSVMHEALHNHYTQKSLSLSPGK
T4 sequence (chain, as listed by the source limits assumed): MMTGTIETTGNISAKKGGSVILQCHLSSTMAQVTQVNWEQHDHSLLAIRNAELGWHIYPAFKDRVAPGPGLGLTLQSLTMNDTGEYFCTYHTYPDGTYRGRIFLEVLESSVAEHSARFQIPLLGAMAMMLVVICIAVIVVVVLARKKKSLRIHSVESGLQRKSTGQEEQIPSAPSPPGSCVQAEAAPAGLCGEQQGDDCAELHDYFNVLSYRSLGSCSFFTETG

B1: TIGIT-006-H1L2 (antibody, V domains shown)
VH: EVQLQESGPGLVKPSETLSLTCAVSGYSITSDYWNWIRQPPGKGLEWIGYISYSGRTYYNPSLKSRVTISRDTSKNQFSLKLSSVTAADTAVYYCARGDYSNYGGAMYDWGQGTTVTVSS
VL: DIVMTQTPLSLSVTPGQPASISCRASQGVSTTIAWYQQKPGQSPKLLIYSASYRYTGVPDRFSGSGSGTDFTLKISRVEAEDVGVYYCQQYYSSPFTFGGGTKVEIK
notes: Humanized anti-TIGIT antibody
- Kd [1]: 5.71 nM
- koff [1]: 0.000666 s⁻¹
- kon [1]: 117000 M⁻¹ s⁻¹
- EC50 [2]: 0.0183 nM
- Fold change vs chimeric antibodies (KD) [3]: 73.8 fold
- binding result [4]: no binding
- binding result [5]: no binding
- IC50 [6]: 1.58 nM
- EC50 [7]: 0.105 nM

B2: TIGIT-006-H2L1 (antibody, V domains shown)
VH: EVQLQESGPGLVKPSETLSLTCAVSGYSMTSDYWNWIRQPPGKGLEWIGYISYSGRTYYNPSLKSRVTISRDTSKNQFSLKLSSVTAADTAVYYCARGDYSNYGGAMYDWGQGTTVTVSS
VL: DIVMTQTPLSLSVTPGQPASISCRASQGVSTTIAWYLQKPGQSPQLLIYSASYRYTGVPDRFSGSGSGTDFTLKISRVEAEDVGVYYCQQYYSSPFTFGGGTKVEIK
notes: Humanized anti-TIGIT antibody
- Kd [1]: 0.95 nM
- koff [1]: 0.000382 s⁻¹
- kon [1]: 403000 M⁻¹ s⁻¹
- EC50 [2]: 0.0106 nM
- Fold change vs chimeric antibodies (KD) [3]: 12.3 fold
- EC50 [4]: 2.88 nM
- EC50 [5]: 0.342 nM
- IC50 [6]: 0.528 nM
- EC50 [7]: 0.0383 nM

B3: TIGIT-006-H3L2 (antibody, V domains shown)
VH: EVQLQESGPGLVKPSETLSLTCAVSGYSMTSDYWNWIRQPPGKKLEWIGYISYSGRTYYNPSLKSRVTISRDTSKNQFSLKLSSVTAADTAVYYCARGDYSNYGGAMYDWGQGTTVTVSS
VL: DIVMTQTPLSLSVTPGQPASISCRASQGVSTTIAWYQQKPGQSPKLLIYSASYRYTGVPDRFSGSGSGTDFTLKISRVEAEDVGVYYCQQYYSSPFTFGGGTKVEIK
notes: Humanized anti-TIGIT antibody
- Kd [1]: 0.748 nM
- koff [1]: 0.000208 s⁻¹
- kon [1]: 279000 M⁻¹ s⁻¹
- EC50 [2]: 0.0099 nM
- Fold change vs chimeric antibodies (KD) [3]: 9.66 fold
- EC50 [4]: 7.44 nM
- EC50 [5]: 1.38 nM
- IC50 [6]: 0.709 nM
- EC50 [7]: 0.0494 nM

B4: TIGIT-006-H5L1 (antibody, V domains shown)
VH: EVQLQESGPGLVKPSETLSLTCAVSGYSMTSDYWNWIRQPPGKKLEYIGYISYSGRTYYNPSLKSRVTISRDTSKNQFSLKLSSVTAADTAVYYCARGDYSNYGGAMYDWGQGTTVTVSS
VL: DIVMTQTPLSLSVTPGQPASISCRASQGVSTTIAWYLQKPGQSPQLLIYSASYRYTGVPDRFSGSGSGTDFTLKISRVEAEDVGVYYCQQYYSSPFTFGGGTKVEIK
notes: Humanized anti-TIGIT antibody
- Kd [1]: 0.0713 nM
- koff [1]: 0.000163 s⁻¹
- kon [1]: 2.29e+06 M⁻¹ s⁻¹
- EC50 [2]: 0.0108 nM
- Fold change vs chimeric antibodies (KD) [3]: 0.92 fold
- EC50 [4]: 0.0182 nM
- EC50 [5]: 0.162 nM
- IC50 [6]: 0.537 nM
- EC50 [7]: 0.0399 nM

B5: TIGIT-006-H5L2 (antibody, V domains shown)
VH: EVQLQESGPGLVKPSETLSLTCAVSGYSMTSDYWNWIRQPPGKKLEYIGYISYSGRTYYNPSLKSRVTISRDTSKNQFSLKLSSVTAADTAVYYCARGDYSNYGGAMYDWGQGTTVTVSS
VL: DIVMTQTPLSLSVTPGQPASISCRASQGVSTTIAWYQQKPGQSPKLLIYSASYRYTGVPDRFSGSGSGTDFTLKISRVEAEDVGVYYCQQYYSSPFTFGGGTKVEIK
notes: Humanized anti-TIGIT antibody
- Kd [1]: 0.08 nM
- koff [1]: 0.000184 s⁻¹
- kon [1]: 2.3e+06 M⁻¹ s⁻¹
- EC50 [2]: 0.0111 nM
- Fold change vs chimeric antibodies (KD) [3]: 1.03 fold
- EC50 [4]: 0.0172 nM
- EC50 [5]: 0.0849 nM
- IC50 [6]: 0.576 nM
- EC50 [7]: 0.0239 nM

B6: TIGIT-006-H2L3 (antibody, V domains shown)
VH: EVQLQESGPGLVKPSETLSLTCAVSGYSMTSDYWNWIRQPPGKGLEWIGYISYSGRTYYNPSLKSRVTISRDTSKNQFSLKLSSVTAADTAVYYCARGDYSNYGGAMYDWGQGTTVTVSS
VL: DIVMTQSPDSLAVSLGERATINCRASQGVSTTIAWYQQKPGQSPKLLIYSASYRYTGVPRFSGSGSGTDFTLTISSLQAEDVAVYYCQQYYSSPFTFGGGTKVEIK
notes: Humanized anti-TIGIT antibody
- Kd [1]: 0.515 nM
- koff [1]: 0.000216 s⁻¹
- kon [1]: 420000 M⁻¹ s⁻¹
- EC50 [2]: 0.0103 nM
- Fold change vs chimeric antibodies (KD) [3]: 6.65 fold
- EC50 [4]: 24.4 nM
- EC50 [5]: 0.255 nM
- IC50 [6]: 0.633 nM
- EC50 [7]: 0.0353 nM

B7: TIGIT-006-H1L3 (antibody, V domains shown)
VH: EVQLQESGPGLVKPSETLSLTCAVSGYSITSDYWNWIRQPPGKGLEWIGYISYSGRTYYNPSLKSRVTISRDTSKNQFSLKLSSVTAADTAVYYCARGDYSNYGGAMYDWGQGTTVTVSS
VL: DIVMTQSPDSLAVSLGERATINCRASQGVSTTIAWYQQKPGQSPKLLIYSASYRYTGVPRFSGSGSGTDFTLTISSLQAEDVAVYYCQQYYSSPFTFGGGTKVEIK
notes: Humanized anti-TIGIT antibody
- Kd [1]: 2.66 nM
- koff [1]: 0.000384 s⁻¹
- kon [1]: 144000 M⁻¹ s⁻¹
- EC50 [2]: 0.0185 nM
- Fold change vs chimeric antibodies (KD) [3]: 34.4 fold
- binding result [4]: no binding
- binding result [5]: no binding
- IC50 [6]: 1.23 nM
- EC50 [7]: 0.0596 nM

B8: TIGIT-006-H3L3 (antibody, V domains shown)
VH: EVQLQESGPGLVKPSETLSLTCAVSGYSMTSDYWNWIRQPPGKKLEWIGYISYSGRTYYNPSLKSRVTISRDTSKNQFSLKLSSVTAADTAVYYCARGDYSNYGGAMYDWGQGTTVTVSS
VL: DIVMTQSPDSLAVSLGERATINCRASQGVSTTIAWYQQKPGQSPKLLIYSASYRYTGVPRFSGSGSGTDFTLTISSLQAEDVAVYYCQQYYSSPFTFGGGTKVEIK
notes: Humanized anti-TIGIT antibody
- Kd [1]: 0.482 nM
- koff [1]: 0.000176 s⁻¹
- kon [1]: 365000 M⁻¹ s⁻¹
- EC50 [2]: 0.0095 nM
- Fold change vs chimeric antibodies (KD) [3]: 6.23 fold
- EC50 [4]: 0.779 nM
- EC50 [5]: 6.29 nM
- IC50 [6]: 0.681 nM
- EC50 [7]: 0.0317 nM
